Literature values, collected in PMC5973875.
Like-named read-outs stand apart in the source and are kept apart here.

What was measured:
[1] = target: Protein S (Homo sapiens) (UniProt P07225)
[2] = target: Protein S (Homo sapiens) (UniProt P07225); remark: listed apart in the source

Sequence of UniProt P07225 (P07225 42-676): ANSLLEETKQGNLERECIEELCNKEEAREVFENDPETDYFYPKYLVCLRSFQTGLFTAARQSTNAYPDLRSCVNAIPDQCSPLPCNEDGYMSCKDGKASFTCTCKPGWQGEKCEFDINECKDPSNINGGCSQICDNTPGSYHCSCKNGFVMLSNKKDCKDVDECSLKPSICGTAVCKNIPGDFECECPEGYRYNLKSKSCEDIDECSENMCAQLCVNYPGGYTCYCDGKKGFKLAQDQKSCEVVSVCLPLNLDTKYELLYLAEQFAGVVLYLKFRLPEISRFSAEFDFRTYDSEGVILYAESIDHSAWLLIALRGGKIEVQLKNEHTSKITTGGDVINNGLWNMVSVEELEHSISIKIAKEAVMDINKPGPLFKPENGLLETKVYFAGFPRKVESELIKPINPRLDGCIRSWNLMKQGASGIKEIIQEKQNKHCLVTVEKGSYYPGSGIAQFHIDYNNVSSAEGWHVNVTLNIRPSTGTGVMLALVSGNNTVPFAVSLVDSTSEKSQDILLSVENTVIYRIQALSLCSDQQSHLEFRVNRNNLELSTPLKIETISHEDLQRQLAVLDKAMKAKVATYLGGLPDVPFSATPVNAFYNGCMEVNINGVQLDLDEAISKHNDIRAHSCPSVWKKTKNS

Kd [1] [nM] | Kd [2] [nM] | Substance
0.1 |  | C4BP (from UniProt P04003)
 | 33 | Factor Va heavy chain (from UniProt P12259)
